{
  "source": "patent US20160145657A1",
  "about": "“Methods and Materials for Producing 7-Carbon Chemicals via a C9 Route” (INVISTA North America S.á.r.l., priority 2014, published 2016)",
  "molecules": {"B1": {"name": "SEQ ID NO: 4: Segniliparus rugosus carboxylate reductase, Genbank Accession No. EFV11917.1 (protein)", "chain": "MGDGEERAKRFFQRIGELSATDPQFAAAAPDPAVVEAVSDPSLSFTRYLDTLMRGYAERPALAHRVGAGYETISYGELWARVGAIAAAWQADGLAPGDFVATVGFTSPDYVAVDLAAARSGLVSVPLQAGASLAQLVGILEETEPKVLAASASSLEGAVACALAAPSVQRLVVFDLRGPDASESAADERRGALADAEEQLARAGRAVVVETLADLAARGEALPEAPLFEPAEGEDPLALLIYTSGSTGAPKGAMYSQRLVSQLWGRTPVVPGMPNISLHYMPLSHSYGRAVLAGALSAGGTAHFTANSDLSTLFEDIALARPTFLALVPRVCEMLFQESQRGQDVAELRERVLGGRLLVAVCGSAPLSPEMRAFMEEVLGFPLLDGYGSTEALGVMRNGIIQRPPVIDYKLVDVPELGYRTTDKPYPRGELCIRSTSLISGYYKRPEITAEVFDAQGYYKTGDVMAEIAPDHLVYVDRSKNVLKLSQGEFVAVAKLEAAYGTSPYVKQIFVYGNSERSFLLAVVVPNAEVLGARDQEEAKPLIAASLQKIAKEAGLQSYEVPRDFLIETEPFTTQNGLLSEVGKLLRPKLKARYGEALEARYDEIAHGQADELRALRDGAGQRPVVETVVRAAVAISGSEGAEVGPEANFADLGGDSLSALSLANLLHDVFEVEVPVRIIIGPTASLAGIAKHIEAERAGASAPTAASVHGAGATRIRASELTLEKFLPEDLLAAAKGLPAADQVRTVLLTGANGWLGRFLALEQLERLARSGQDGGKLICLVRGKDAAAARRRIEETLGTDPALAARFAELAEGRLEVVPGDVGEPKFGLDDAAWDRLAEEVDVIVHPAALVNHVLPYHQLFGPNVVGTAEIIRLAITAKRKPVTYLSTVAVAAGVEPSSFEEDGDIRAVVPERPLGDGYANGYGNSKWAGEVLLREAHELVGLPVAVFRSDMILAHTRYTGQLNVPDQFTRLVLSLLATGIAPKSFYQQGAAGERQRAHYDGIPVDFTAEAITTLGAEPSWFDGGAGFRSFDVFNPHHDGVGLDEFVDWLIEAGHPISRIDDHKEWFARFETAVRGLPEAQRQHSLLPLLRAYSFPHPPVDGSVYPTGKFQGAVKAAQVGSDHDVPHLGKALIVKYADDLKALGLL"}, "B2": {"name": "SEQ ID NO 5: Mycobacterium abscessus subsp. bolletii (Mycobacterium massiliense) carboxylate reductase, Genbank Accession No. EIV11143.1 (protein)", "chain": "MTNETNPQQEQLSRRIESLRESDPQFRAAQPDPAVAEQVLRPGLHLSEAIAALMTGYAERPALGERARELVIDQDGRTTLRLLPRFDTTTYGELWSRTTSVAAAWHHDATHPVKAGDLVATLGFTSIDYTVLDLAIMILGGVAVPLQTSAPASQWTTILAEAEPNTLAVSIELIGAAMESVRATPSIKQVVVFDYTPEVDDQREAFEAASTQLAGTGIALETLDAVIARGAALPAAPLYAPSAGDDPLALLIYTSGSTGAPKGAMHSENIVRRWWIREDVMAGTENLPMIGLNFMPMSHIMGRGTLTSTLSTGGTGYFAASSDMSTLFEDMELIRPTALALVPRVCDMVFQRFQTEVDRRLASGDTASAEAVAAEVKADIRDNLFGGRVSAVMVGSAPLSEELGEFIESCFELNLTDGYGSTEAGMVFRDGIVQRPPVIDYKLVDVPELGYFSTDKPHPRGELLLKTDGMFLGYYKRPEVTASVFDADGFYMTGDIVAELAHDNIEIIDRRNNVLKLSQGEFVAVATLEAEYANSPVVHQIYVYGSSERSYLLAVVVPTPEAVAAAKGDAAALKTTIADSLQDIAKEIQLQSYEVPRDFIIEPQPFTQGNGLLTGIAKLARPNLKAHYGPRLEQMYAEIAEQQAAELRALHGVDPDKPALETVLKAAQALLGVSSAELAADAHFTDLGGDSLSALSFSDLLRDIFAVEVPVGVIVSAANDLGGVAKFVDEQRHSGGTRPTAETVHGAGHTEIRAADLTLDKFIDEATLHAAPSLPKAAGIPHTVLLTGSNGYLGHYLALEWLERLDKTDGKLIVIVRGKNAEAAYGRLEEAFDTGDTELLAHFRSLADKHLEVLAGDIGDPNLGLDADTWQRLADTVDVIVHPAALVNHVLPYNQLFGPNVVGTAEIIKLAITTKIKPVTYLSTVAVAAYVDPTTFDEESDIRLISAVRPIDDGYANGYGNAKWAGEVLLREAHDLCGLPVAVFRSDMILAHSRYTGQLNVPDQFTRLILSLIATGIAPGSFYQAQTTGERPLAHYDGLPGDFTAEAITTLGTQVPEGSEGFVTYDCVNPHADGISLDNFVDWLIEAGYPIARIDNYTEWFTRFDTAIRGLSEKQKQHSLLPLLHAFEQPSAAENHGVVPAKRFQHAVQAAGIGPVGQDGTTDIPHLSRRLIVKYAKDLEQLGLL"}, "B3": {"name": "SEQ ID NO 3: Mycobacterium smegmatis carboxylate reductase, Genbank Accession No. ABK71854.1 (protein)", "chain": "MTSDVHDATDGVTETALDDEQSTRRIAELYATDPEFAAAAPLPAVVDAAHKPGLRLAEILQTLFTGYGDRPALGYRARELATDEGGRTVTRLLPRFDTLTYAQVWSRVQAVAAALRHNFAQPIYPGDAVATIGFASPDYLTLDLVCAYLGLVSVPLQHNAPVSRLAPILAEVEPRILTVSAEYLDLAVESVRDVNSVSQLVVFDHHPEVDDHRDALARAREQLAGKGIAVTTLDAIADEGAGLPAEPIYTADHDQRLAMILYTSGSTGAPKGAMYTEAMVARLWTMSFITGDPTPVINVNFMPLNHLGGRIPISTAVQNGGTSYFVPESDMSTLFEDLALVRPTELGLVPRVADMLYQHHLATVDRLVTQGADELTAEKQAGAELREQVLGGRVITGFVSTAPLAAEMRAFLDITLGAHIVDGYGLTETGAVTRDGVIVRPPVIDYKLIDVPELGYFSTDKPYPRGELLVRSQTLTPGYYKRPEVTASVFDRDGYYHTGDVMAETAPDHLVYVDRRNNVLKLAQGEFVAVANLEAVFSGAALVRQIFVYGNSERSFLLAVVVPTPEALEQYDPAALKAALADSLQRTARDAELQSYEVPADFIVETEPFSAANGLLSGVGKLLRPNLKDRYGQRLEQMYADIAATQANQLRELRRAAATQPVIDTLTQAAATILGTGSEVASDAHFTDLGGDSLSALTLSNLLSDFFGFEVPVGTIVNPATNLAQLAQHIEAQRTAGDRRPSFTTVHGADATEIRASELTLDKFIDAETLRAAPGLPKVTTEPRTVLLSGANGWLGRFLTLQWLERLAPVGGTLITIVRGRDDAAARARLTQAYDTDPELSRRFAELADRHLRVVAGDIGDPNLGLTPEIWHRLAAEVDLVVHPAALVNHVLPYRQLFGPNVVGTAEVIKLALTERIKPVTYLSTVSVAMGIPDFEEDGDIRTVSPVRPLDGGYANGYGNSKWAGEVLLREAHDLCGLPVATFRSDMILAHPRYRGQVNVPDMFTRLLLSLLITGVAPRSFYIGDGERPRAHYPGLTVDFVAEAVTTLGAQQREGYVSYDVMNPHDDGISLDVFVDWLIRAGHPIDRVDDYDDWVRRFETALTALPEKRRAQTVLPLLHAFRAPQAPLRGAPEPTEVFHAAVRTAKVGPGDIPHLDEALIDKYIRDLREFGLI"}},
  "key": {"[1]": {"assay": "carboxylate reductase activity, pimelate to pimelate semialdehyde, NADPH consumption at 340 nm", "type": "biochemical", "settings": "purified enzyme enhanced by sfp gene product, 2 mM pimelate, pH 7.5, room temperature, 20 min; FIG. 8", "protocol": "A nucleotide sequence encoding a HIS-tag was added to the nucleic acid sequences from Segniliparus rugosus and Segniliparus rotundus that encode the carboxylate reductases of SEQ ID NOs: 4 (EFV11917.1) and 6 (ADG98140.1), respectively (see FIG. 6), such that N-terminal HIS tagged carboxylate reductases could be produced. Each of the modified genes was cloned into a pET Duet expression vector along with a sfp gene encoding a HIS-tagged phosphopantetheine transferase from Bacillus subtilis, both under the T7 promoter. Each expression vector was transformed into a BL21[DE3] E. coli host and the resulting recombinant E. coli strains were cultivated at 37° C. in a 250 mL shake flask culture containing 50 mL LB media and antibiotic selection pressure, with shaking at 230 rpm. Each culture was induced overnight at 37° C. using an auto-induction media.\nThe pellet from each induced shake flask culture was harvested via centrifugation. Each pellet was resuspended and lysed via sonication, and the cell debris was separated from the supernatant via centrifugation. […]\nEnzyme activity assays (i.e., from pimelate to pimelate semialdehyde) were performed in triplicate in a buffer composed of a final concentration of 50 mM HEPES buffer (pH=7.5), 2 mM pimelate, 10 mM MgCl2, 1 mM ATP and 1 mM NADPH. […] The consumption of NADPH was monitored by absorbance at 340 nm. […]"}, "[2]": {"assay": "carboxylate reductase activity, N7-acetyl-7-aminoheptanoate to N7-acetyl-7-aminoheptanal, NADPH consumption at 340 nm", "type": "biochemical", "settings": "purified enzyme enhanced by sfp gene product, 2 mM N7-acetyl-7-aminoheptanoate, pH 7.5, room temperature, 20 min; FIG. 10", "protocol": "The activity of each of the N-terminal His-tagged carboxylate reductases of SEQ ID NOs: 3, 5, and 6 (see Examples 2 and 3, and FIG. 6) for converting N7-acetyl-7-aminoheptanoate to N7-acetyl-7-aminoheptanal was assayed in triplicate in a buffer composed of a final concentration of 50 mM HEPES buffer (pH=7.5), 2 mM N7-acetyl-7-aminoheptanoate, 10 mM MgCl2, 1 mM ATP, and 1 mM NADPH. The assays were initiated by adding purified carboxylate reductase and phosphopantetheine transferase or the empty vector control to the assay buffer containing the N7-acetyl-7-aminoheptanoate then incubated at room temperature for 20 min. The consumption of NADPH was monitored by absorbance at 340 nm."}},
  "data": [
    {"molecule": "B1", "values": [
      {"measurement": "acceptance of pimelate as substrate (NADPH consumption) against the empty vector control", "setting": "[1]", "result": "accepted pimelate as substrate"}
    ]},
    {"molecule": "B2", "values": [
      {"measurement": "acceptance of N7-acetyl-7-aminoheptanoate as substrate (NADPH consumption) against the empty vector control", "setting": "[2]", "result": "accepted N7-acetyl-7-aminoheptanoate as substrate"}
    ]},
    {"molecule": "B3", "values": [
      {"measurement": "acceptance of N7-acetyl-7-aminoheptanoate as substrate (NADPH consumption) against the empty vector control", "setting": "[2]", "result": "accepted N7-acetyl-7-aminoheptanoate as substrate"}
    ]}
  ]
}
